Assay: yeast display, Sf9 membrane polyspecificity reagent, FACS + sequencing; frameworks hold sequencing errors
Outline: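 Sorting gates, low and high (top ~1%), were placed on anti-HA fluorescence to track expression and on streptavidin fluorescence to track reagent binding. A clone's polyreactivity label is taken from the gate it came out of. The reagent was 10% biotinylated, detergent-solubilized Sf9 membrane, applied for 1 hour at 4 °C to galactose-induced yeast display cells.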

| Sequence | polyreactivity (PSR sort gate) |
| --- | --- |
| QVQLGESAGGLVQAGGSLRLSCAASGFTFYPYAMGWYRQAPGKEREFVAAITWRGASTYYADSVKGRFTISRDNGKNTVYLQMNSLKPEDTAVYYCNARWRVPRGYDYWGQGTQVTVSS | high polyreactivity |
| QVQIVESGGGLVQAGGSLRLSCAASGRIFVRNAMGWYRQAPAKERELVADITNGGSTNYADSVKGRFTISRDNEKNTVYLQMNSLKPEDTAVYYCAADSLGVYDGDYWGQGTQVTVSS | low polyreactivity |
| QVQLVESGGGLVQAGGSLRLSCAASGRTFGYYAMGWYRQAPGKERELVASISSSGGNTYYADSVKGRFTISRDNAKNTVYLQMNSLKPEDTAVYYCAATYGWWPRDYYYWGQGTQVTVSS | high polyreactivity |
| QVQLVEAGGGLVQAGGSLRLSCAASGSIFKSYAMGRYRQAPGKEREFVASITKSGGTTYYADSVKGRFTISRDHAKNTVYLQMNSLKPEDTAVYYCAADWYRSSWTYNYLGQGTQVTVSS | low polyreactivity |
| QVQLVESGGGLVQAGGSLRLSCAASGGTFGSYTMGWYRQAPGKERELVAAISSGGGTDYADSVKGRFTISRDNAKNTVYLQMNSLIPEDTAVYYCYAKSYYAWGSVRYPQTFDYWGQGTQVTVSS | low polyreactivity |
| QVQLVESGGGLVQAGGSLRLSCAASGRTFRAYAMGWYRQAPGKERELVAGITSGGSTNYADSVKGRFTISRDNAKNTVYLQMNSLKPEDTAVYYCAARRGTYRYRYDYWGQGTQVTVSS | high polyreactivity |
| QVQLVESGGGLVQAGGSLRLSCAASGRTFPRYAMGWYRQAPGKERELVADISFSGDSTSYADSVKGRFTISRDNAKNTVYLQMNSLKPEDTAVYYCNADYKSTVFRYSGSRNYWGQGTQVTVSS | low polyreactivity |
| QVQLVESGGGLVQAGGSLRLSCAASGFTSWQYAMGWYRQAPGKERELVAAISVSGASTYYADSVKGRFTISRDNAKNTVYLQMNSLKPEDTAVYYCAAAYVRYPTTRYYYWGQGTQVTVSS | high polyreactivity |
| QVQLVESGGGLVQAGGSLRLSCAASGRIFVDYDMGWYRQAPGKERELVAAISFDGGNTYADSVKGRFTISRDNAKNTVYLQMNSLKPEDTAVYYCARDDTSPGYGDQSSNAAYYYWGQGTQVTVSS | low polyreactivity |
| QVQLVESGGRLVQAGGSLRLSCAASGSTINKYAMGWYRQAPGKERELVAAISRSGGSTNYADSVKGRFTISRDNAKNTVYLQMNSLKPEDNAVYYCNRTRYRSFHYDYWGQGTQVTVSS | high polyreactivity |
| QVQLVESGGGLVQAGGSLRLSCAASGSTFKRYAMGWYRQAPGKERELVAAITNGDRTNYADSVKGRFTISRDNAKKTVYLQMNSLKPEDTAVYYCAAAYSRYTSRFYYWGQGTQVTVSS | high polyreactivity |
| QVQLVESGGGLVQAGGSLRLSCAASGSIFPVNTMGWYRQAPGKERELVAAITQRGGRTYYADSVKGRFTISRDNAKNTVYLQMNSLKPEDTAVYYCNRDLGAGGYDYWGQGTQVTVSS | low polyreactivity |
| QVQLVESGGGLVQAGGSLRISCAASGRTFYNNAMGWYRQAPGTERELVATIHNRGGTTYYADSVKGRFTISRYNAKNTVYLLMNSLKPEDTAVYYCAKSAQRYSYRYYYWGQGTQVTVSS | high polyreactivity |
| QVQLVETGGGLVQAGGSLRLSCAASGSTFYRYAMGWYRQAPGKERELVAAITRSGGGTHYADSVKGRFTISRDNAKNTVYLQMNSLKPEDTAVYYCAKRQSGYRYDYWGQGTQVTVSS | low polyreactivity |
| QVQLVESGGGLVQAGGSLRLSCAASGRTYRTYAMGWYRQAPGKEREFVAAITSSGGSTYYADSVKGRFTISRDNAKNTVDLEMNSLKPEDTAVYSCNAKRRYGPDKYDYWGQGTQVTVSS | high polyreactivity |
| QVQLVESRGGLVQAGGSLRLSCAASGFTFYSNAMGWYRQAPGKERELVAAIAKRGGSTYYADSVKGRFTISRDNAKNTVYLQMISLKPEDTAVYYCNKDYYARKYDYWGQGTLVTVSS | high polyreactivity |
| QVQLVESGGGLVQAGGSLRLSCAASGFIFSWYAMGWYRQAPGKERELVARISSSGGNTYYADSVKGRFTISRDNAKNTVYLQMNSLKPEDTAVYYCAAGYRYRYDYWGQGTQVTVSS | high polyreactivity |
| QVQLVESGGGLVQAGGSLRLSCAASGGTSQGNAMGWYRQAPGKERELVAAISWSGGTTYYADSVKGRFTISRDNAKNTVYLQMNSLKPEDTAVYYCAAYRYAGRYVPYGDYDYWGQGTQVTVSS | low polyreactivity |
| QVQLVESGGGLVQAGGSLRLSCAASGFILPYYTMGWYRQAPGKERELVAAITYSGASTFYADSVKGRFTISRDNAKNTVYLQMNSLKPEDTAVYYCAKEWSGWYESPLDDGDYDYWGQGTQVTVSS | low polyreactivity |
| QVQIVESGGGLVQAGGSLRLSCAASGSTFKRYAMGWYRQAPGKERELVAAITWRGGSTYYADSVKGRFTISRDNAKNTVYLQMNSLKPEDTAVYYCAARANYFGWPKSYYYWGQGTQVTVSS | high polyreactivity |
| QVQLVESGGGLVQAGGSLRLSCSASGFIFYKNAMGWYRQAPGKERELVAAISGGGGSTYYADSVKGRFTISRDNAKNTVYLQMNSLKPDDTAVYYCATYSFRRTGWRYDYWGQGSQVTVSS | high polyreactivity |
| QVQLVESGGGLVQAGGSLRLSCAASGRTIASYAMGWYRQAPGKERELVAAITSGGSTYYADSVKGRFTISRDNAKNTVYLQMNSLKPEDTAVYYCARIHAIWRGYDYWGQGTQVTVSS | low polyreactivity |

| Sequence | polyreactivity (PSR sort gate) |
| --- | --- |
| QVQLHESGGGLVQAGGSLRLSCAASGTISYAGPMGWYRQAPGKEREFVAGIGVGSNTNYADSVKGRYTIIRDNAKNTVYLQMNSLNPEDTAVYYCAVGGYDPLGRPYWGQGTQVTVSS | low polyreactivity |
| QVQLVESGGGLVQAGGSLLLSCAASGSIFVRNTMGWYRQAPGKERELVAAITSSGGTTYYADSVKGRFTISRDNAKNTVYLQMNSLKPEDTAVYYCAARYGYWGQGTQVTVSS | high polyreactivity |
| QVQLVESGGGLVQAGGSLRLSCDASGSIFDYNTMGWYRQAPGKERELIAVISGTGGSTYYGDSVKGRFTISRDNAKNTVYLEMNSLKPEDTAVYYCAAAWYYSSRAFHATWGHDYWGQGTQVTVSS | low polyreactivity |
| QVQLVESGGGLVQAGGSLRLSCAASGSIFRSYAMGWYRQAPGKERELVAAISGRGSNTYYADSVKGRFTISRDNAKNTVYLQMNSLKPEDTAVYYCATRQWVFSHGYWGQGTQVTVSS | high polyreactivity |
| QVQLVESGGGLVQAGGSLRLSCAASGSIFYNNAMGWYRQAPGKERELVAAISLRGGSTYYADSVKGRFTISRDNAKNTVYLQMNSLKPEDTAVYYCAAGVRSPFRGGYYWGQGTQVTVSS | high polyreactivity |
| QVQLVESGGGLVQAGGSLRLSCAASGNIFRYYVMGLYRQAAGKEREFVAAITSSGGSTYYADSVKGRFTISRDNAKKTVYLQMNSLKPEDTAVYYCAKDYWDPGWAEYDYWGQGTQVTVSS | low polyreactivity |
| QVQLVESGGGLVQAGGSLRLSCAASGFTFSNYTMGWYRQAPVKERELVARITTRGTSTYYADSVKGRFTISRDNAKNTVYLQMNSLKPEDTAVYYCNARARYPRGYEYDYWGQGTQVTVSS | high polyreactivity |
| QVQLVESGGGLVQAGGSLRLSCAASGITFDANAMGWYRQAPGKERELVARISSGGSTNYADSVKGRFTISRDNAKNTVYLQMNSLKPEDTAVYYCNTDLTGLDAEYDYWGQGTQVTVSS | low polyreactivity |
| QVQLVESGGGLVQAGGSLRLICAASGSTFDLYAMGWYRQAPGKESELVAAITRCGSTYYADSVKGRFTISRDNAKNTVYLQMNSLKPEDTAVYYCAASRYYNTVHNGGDYWGQGTQVTLSS | high polyreactivity |
| QVHLVESGGGLVQAGGSLRLSCAASGSTFTYNTMGWYRQAPGKERELVAAITWSGGRTYYADSVKGRFTISRDNAKNTVYLQMNSLKPEDTAVYYCNADSSGVTSAYDYWGQGTQVTVSS | high polyreactivity |
| QVQLVESGGGLVQAGGSLRLSCAASGFIFRYNAMGWYRQAPGKERELVARITSSGGTTYYADSVKGRFTISRDNAKNTVYLQMNSLKPEDTAVYYCAITWRKYYPPYYYWGQGTQVTVSS | high polyreactivity |
| QVQLVESGGGLVHPGGSLRLSCAASGSTFGCNAMGWYRQAPGKERELVSAITFSGGTTYYADSVKGRFTISRDNAKNTVYLQMNSLKPEDTAVYYCNAEWWYQYTGPFAPRGEDYLGQGTQVTVSS | low polyreactivity |
| QVQLVESGGGLVQAGGSLRLSCAASGRNFIYNAMGWYRQAPGKERELVAAISRSGGSTNYADSVKGRFTISRDNAKNTVYLQMNSLKPEDTAVYYCAVDSGRYYYYLGFSTRYYWGQGTQVTVSS | high polyreactivity |
| QEQLVESGGGLVQAGGSLRLSCAASGRIFPYYAMGWYRPAPGKERELVASITARGGSTYYADSVKGRFTISRDNAKNTVYLQMNSLKPEDTAVYYCATRGYAWSSDKFGYWGQGTQVTVSS | high polyreactivity |
| QVQLVESGGGLVQAGGSLRLSSAASGTFWWYAMGWYRQAPGQEMELVASINRGGSTYYADSVKGRFTISRDNAKNTVYLQMNSLKPEDTAVYYCAAQVDRKYRWFNSWGQGTQVTVSS | high polyreactivity |
| QVQLVESGGGLVQAGGSLRLSCAASGSTFTTNAMGWYRQAPGKEREFVAAITRSSGSTYYADSVKGRFTISRDNAKNTVYLQMNSLKPEDTAVYYCAAAYRQNPSQSKSRFGYWGQGTQVTVSS | high polyreactivity |
| QVQLVESGGGLVQAGGSLRLSCAASGSIFGLYAMGWYRPAPGKERELVAAISRTGGSTYYADSVKGRFTLSRDNAKNTVYFQMHSLKPEETAVYYCAAKYQYTQYDYWGQGTQVTVSS | high polyreactivity |
| QVQLVESGGGIVQAGGSLRLSCAASGRTFWRNTMGWYRQAPGKETELVAAINKPGGSTYYADSVKGRFTISRDNAKNTVYLQMNSLKPEDTAVYYCNALTYQGRHSARYDYWGQGTQVTVSS | high polyreactivity |
| QVQVVESGGGLVQAGGSLRLSCAASGSIFFVYAMGWYRQAPGKERELVAAISSGDITYYADSVKGRFTISRDNAKNTVYLQLISLKPEDTAVYYCNAERLGNTLSPGGDDYWGQGTQVTVSS | low polyreactivity |
| QVQLVESGGGLVQAGGSLRLICAASGRIFDPYAMGWYRQAPGKERELVASISWSGGRTYYADSVKGRFTISRDNAKNTVYLQMNSLKPEDTAVYYCAARQWYRYKVRFDYWGQGTQVTVSS | high polyreactivity |
| QVQLVESGGGLVQAGGSLRLSCAASGITFPYYAMGWYRQAPGKERELVAAITRSGSSTYYADSVKGRFTISRDNAKNTVYLQMNSLKPEDTAVYYCAAKRGAGEDYWGQGTQVTVSS | high polyreactivity |

Source: the nanobody polyreactivity screen of Harvey et al. (2022)
